As usually defined, the stoichiometry N is a count of units in the complex or per binding partner.

Where “and” joins values, the source holds several entries; their conditions need not be identical. Equal values may be shown once.

We go through 2 proteins from PMC7461980, “High-Level Production of Recombinant Snowdrop Lectin in Sugarcane and Energy Cane” (Frontiers in Bioengineering and Biotechnology, 2020).

Data set [1] deals with the molecule itself. Kind of data set: MALDI-TOF MS; non-reducing conditions; sinapinic acid matrix; linear delayed positive ion mode; mass range 4,500-50,000 Da.
The target in another data set is P30617. Kind of data set: SEC; TSKgel G3000SW xL, HPLC; 50 mM sodium phosphate, 0.3 M NaCl, pH 7.0; non-reducing conditions; 1.0 mL/min; absorbance at 220 and 280 nm; mass standards 6.5-675 kDa.
Data set [2] deals with the molecule itself. Described as above.

B1: recombinant GNA109 (G. nivalis lectin LECGNA2 with four additional amino acids, Thr106 His107 Thr108 Gly109, at the C-terminus of the mature protein) (natural protein, Galanthus nivalis)
chain: DNILYSGETLSTGEFLNYGSFVFIMQEDCNLVLYDVDKPIWATNTGGLSRSCFLSMQTDGNLVVYNPSNKPIWASNTGGQNGNYVCILQKDRNVVIYGTDRWATGTHTG
notes: numbers count on: the mature protein; four additional amino acids Thr106 His107 Thr108 Gly109 at the C-terminus of the mature protein; Theoretical mass printed: 12,051.42 Da; source: synthesized (GenScript); purified using immobilized mannose
Turning to B1, in data set [1], the “stoichiometry N” value was 2 and 3.

B2: sugarcane recombinant GNA (Galanthus nivalis agglutinin, snowdrop lectin LECGNA2) (natural protein, UniProt P30617 20-128, looked up)
chain: DNILYSGETLSTGEFLNYGSFVFIMQEDCNLVLYDVDKPIWATNTGGLSRSCFLSMQTDGNLVVYNPSNKPIWASNTGGQNGNYVCILQKDRNVVIYGTDRWATG
notes: Galanthus nivalis L. (snowdrop) lectin LECGNA2, expressed from the full-length cDNA (570 bp); the purified product is a band corresponding to mature GNA (about 12.0 kDa); The exact C-terminal end of the processed protein in sugarcane is not determined; native GNA 12,054.41 Da theoretical; also called sugarcane GNA
As for B2, the “stoichiometry N” value in data set [1] is 2 and 3; in data set [2], 4. Moreover, the “purity (relative peak abundance) of the tetramer” value in the data set with P30617 is “The purities of the recombinant GNA monomer and tetramer were 65.5% and 24%, respectively”.
